The sequences below were run on Escherichia coli TOP10 (assay: shrunken log2 fold change of peptide-encoding DNA abundance (4.5 h post-induction vs induction); higher = less antimicrobial activity (less host growth inhibition)). Settings: time post-induction: 4.5 h; library: site-saturation at positions 5, 18, 19, 20.
For RRIRRRPPRLPRPRPRPKDNPRP, the “shrunken log2 fold change” value was 0.0969. RRIRYRPPRLPRPRPRPACFPRP was tested, and the “shrunken log2 fold change” value was -0.166. For RRIRDRPPRLPRPRPRPNYVPRP, the “shrunken log2 fold change” value was -0.147. For RRIRIRPPRLPRPRPRPMILPRP, the “shrunken log2 fold change” value was -0.131. In the case of RRIRRRPPRLPRPRPRPQVSPRP, the “shrunken log2 fold change” value is reported as 0.0704. RRIRSRPPRLPRPRPRPRLGPRP was tested, and the “shrunken log2 fold change” value was 0.468. In the case of RRIRERPPRLPRPRPRPCHEPRP, the “shrunken log2 fold change” value is reported as -0.0789. With RRIRDRPPRLPRPRPRPLKEPRP the “shrunken log2 fold change” value was -0.277. For RRIRCRPPRLPRPRPRPRWFPRP, the “shrunken log2 fold change” value was 0.0519. In the case of RRIRYRPPRLPRPRPRPACKPRP, the “shrunken log2 fold change” value is reported as -0.0277. In the case of RRIRNRPPRLPRPRPRPRHYPRP, the “shrunken log2 fold change” value is reported as -0.446. RRIRFRPPRLPRPRPRPFFAPRP was tested, and the “shrunken log2 fold change” value was 0.424. In the case of RRIRDRPPRLPRPRPRPKNYPRP, the “shrunken log2 fold change” value is reported as -0.303. In the case of RRIRWRPPRLPRPRPRPVFCPRP, the “shrunken log2 fold change” value is reported as 0.119. For RRIRNRPPRLPRPRPRPMGRPRP, the “shrunken log2 fold change” value was -0.117. For RRIRGRPPRLPRPRPRPNEIPRP, the “shrunken log2 fold change” value was 0.559. RRIRCRPPRLPRPRPRPLVDPRP was tested, and the “shrunken log2 fold change” value was 1.58. In the case of RRIRHRPPRLPRPRPRPLTPPRP, the “shrunken log2 fold change” value is reported as -0.119. For RRIRYRPPRLPRPRPRPALLPRP, the “shrunken log2 fold change” value was -0.0984. For RRIRVRPPRLPRPRPRPNLYPRP, the “shrunken log2 fold change” value was -0.563. For RRIRMRPPRLPRPRPRPMIVPRP, the “shrunken log2 fold change” value was -0.101. For RRIRERPPRLPRPRPRPICVPRP, the “shrunken log2 fold change” value was -0.301. In the case of RRIRHRPPRLPRPRPRPFRWPRP, the “shrunken log2 fold change” value is reported as 0.137. With RRIRMRPPRLPRPRPRPSCWPRP the “shrunken log2 fold change” value was 0.594. RRIRARPPRLPRPRPRPLWNPRP was tested, and the “shrunken log2 fold change” value was 0.0673. For RRIRFRPPRLPRPRPRPFFQPRP, the “shrunken log2 fold change” value was -0.378. With RRIRRRPPRLPRPRPRPVAVPRP the “shrunken log2 fold change” value was 0.348. RRIRDRPPRLPRPRPRPHVKPRP was tested, and the “shrunken log2 fold change” value was -0.205. RRIRQRPPRLPRPRPRPLDDPRP was tested, and the “shrunken log2 fold change” value was -0.0837. RRIRRRPPRLPRPRPRPLCIPRP was tested, and the “shrunken log2 fold change” value was -0.119. For RRIRYRPPRLPRPRPRPKACPRP, the “shrunken log2 fold change” value was -0.00227. For RRIRWRPPRLPRPRPRPFTVPRP, the “shrunken log2 fold change” value was -0.512. RRIRHRPPRLPRPRPRPEEYPRP was tested, and the “shrunken log2 fold change” value was -0.289. In the case of RRIRVRPPRLPRPRPRPKACPRP, the “shrunken log2 fold change” value is reported as 0.153. With RRIRGRPPRLPRPRPRPNLGPRP the “shrunken log2 fold change” value was 0.191. RRIRARPPRLPRPRPRPKPDPRP was tested, and the “shrunken log2 fold change” value was 0.582. RRIRHRPPRLPRPRPRPQTSPRP was tested, and the “shrunken log2 fold change” value was -0.264. RRIRQRPPRLPRPRPRPPCDPRP was tested, and the “shrunken log2 fold change” value was -0.0587. In the case of RRIRIRPPRLPRPRPRPKWRPRP, the “shrunken log2 fold change” value is reported as 0.188. For RRIRNRPPRLPRPRPRPYTWPRP, the “shrunken log2 fold change” value was -0.547. For RRIRQRPPRLPRPRPRPNQNPRP, the “shrunken log2 fold change” value was -0.24. With RRIRTRPPRLPRPRPRPMTLPRP the “shrunken log2 fold change” value was -0.028. With RRIRVRPPRLPRPRPRPCCVPRP the “shrunken log2 fold change” value was -0.146. In the case of RRIRERPPRLPRPRPRPLQCPRP, the “shrunken log2 fold change” value is reported as -0.254. With RRIRTRPPRLPRPRPRPPTDPRP the “shrunken log2 fold change” value was 0.0638. With RRIRMRPPRLPRPRPRPIHPPRP the “shrunken log2 fold change” value was -0.0207. With RRIRARPPRLPRPRPRPHGVPRP the “shrunken log2 fold change” value was 0.0905. RRIRNRPPRLPRPRPRPPIKPRP was tested, and the “shrunken log2 fold change” value was -0.279. For RRIRHRPPRLPRPRPRPAMDPRP, the “shrunken log2 fold change” value was -0.221. RRIRDRPPRLPRPRPRPVQEPRP was tested, and the “shrunken log2 fold change” value was -0.0575. RRIRIRPPRLPRPRPRPMERPRP was tested, and the “shrunken log2 fold change” value was -0.0018. In the case of RRIRKRPPRLPRPRPRPVYEPRP, the “shrunken log2 fold change” value is reported as -0.115. RRIRQRPPRLPRPRPRPQDAPRP was tested, and the “shrunken log2 fold change” value was -0.253. In the case of RRIRVRPPRLPRPRPRPATCPRP, the “shrunken log2 fold change” value is reported as -0.164. For RRIRYRPPRLPRPRPRPEIFPRP, the “shrunken log2 fold change” value was -0.159. In the case of RRIRTRPPRLPRPRPRPTLRPRP, the “shrunken log2 fold change” value is reported as -0.023. In the case of RRIRMRPPRLPRPRPRPAMVPRP, the “shrunken log2 fold change” value is reported as 0.501. In the case of RRIRCRPPRLPRPRPRPASIPRP, the “shrunken log2 fold change” value is reported as -0.612. RRIRPRPPRLPRPRPRPNWQPRP was tested, and the “shrunken log2 fold change” value was 0.131. In the case of RRIRLRPPRLPRPRPRPIFEPRP, the “shrunken log2 fold change” value is reported as -0.0366. In the case of RRIRTRPPRLPRPRPRPELAPRP, the “shrunken log2 fold change” value is reported as 0.188. With RRIRYRPPRLPRPRPRPQAAPRP the “shrunken log2 fold change” value was -0.195. RRIRYRPPRLPRPRPRPRISPRP was tested, and the “shrunken log2 fold change” value was -0.218. For RRIRYRPPRLPRPRPRPCLTPRP, the “shrunken log2 fold change” value was -0.125. For RRIRDRPPRLPRPRPRPFIGPRP, the “shrunken log2 fold change” value was -0.158. In the case of RRIRFRPPRLPRPRPRPILYPRP, the “shrunken log2 fold change” value is reported as -0.7. With RRIRKRPPRLPRPRPRPSPWPRP the “shrunken log2 fold change” value was 0.141. RRIRLRPPRLPRPRPRPYYWPRP was tested, and the “shrunken log2 fold change” value was -0.172. RRIRIRPPRLPRPRPRPVMEPRP was tested, and the “shrunken log2 fold change” value was -0.194. With RRIRDRPPRLPRPRPRPANNPRP the “shrunken log2 fold change” value was -0.218. RRIRVRPPRLPRPRPRPNDVPRP was tested, and the “shrunken log2 fold change” value was -0.116. For RRIRRRPPRLPRPRPRPGFPPRP, the “shrunken log2 fold change” value was 3.88. RRIRPRPPRLPRPRPRPRLIPRP was tested, and the “shrunken log2 fold change” value was 0.292. With RRIRRRPPRLPRPRPRPFNNPRP the “shrunken log2 fold change” value was 0.221. With RRIRFRPPRLPRPRPRPGDRPRP the “shrunken log2 fold change” value was 0.151.
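Also: peptides expressed intracellularly from a pBAD plasmid library in pooled LB shake-flask culture, induced with 0.3% L-arabinose, DNA abundance read by NGS, three biological replicates, DESeq2 with apeglm shrinkage.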
